Results on two proteins are retold here after article PMC2787699.

Substrate in this series: O=C(O)[C@@H](O)[C@H](O)[C@H](O)[C@@H](O)C(=O)O
Put plainly: purified protein. It counts as biochemical, Oceanobacillus iheyensis. Conditions: 50 mM Hepes pH 8.0, 5 mM MgCl2.

By Km is commonly meant the substrate concentration at which the rate is half of its maximum. By kcat is commonly meant the number of substrate molecules converted per active site and unit of time at saturation. As a reminder, the kcat/Km is the turnover number divided by the Michaelis constant.

B1: Ob2843; galactarate dehydratase GalrD-II (Oceanobacillus iheyensis HTE831) (protein)
chain: MKITDLELHAVGIPRHTGFVNKHVIVKIHTDEGLTGIGEMSDFSHLPLYSVDLHDLKQGLLSILLGQNPFDLMKINKELTDNFPETMYYYEKGSFIRNGIDNALHDLCAKYLDISVSDFLGGRVKEKIKVCYPIFRHRFSEEVESNLDVVRQKLEQGFDVFRLYVGKNLDADEEFLSRVKEEFGSRVRIKSYDFSHLLNWKDAHRAIKRLTKYDLGLEMIESPAPRNDFDGLYQLRLKTDYPISEHVWSFKQQQEMIKKDAIDIFNISPVFIGGLTSAKKAAYAAEVASKDVVLGTTQELSVGTAAMAHLGCSLTNINHTSDPTGPELYVGDVVKNRVTYKDGYLYAPDRSVKGLGIELDESLLAKYQVPDLSWDNVTVHQLQDRTADTKS
For B1, the Km was found to be 620 ± 380 µM, the kcat worked out at 6.8 ± 1.2 s⁻¹ and the kcat/Km stood at 11000 M⁻¹ s⁻¹.

B2: Ob2843; galactarate dehydratase GalrD-II (Oceanobacillus iheyensis HTE831; Y90F) (protein)
chain: MKITDLELHAVGIPRHTGFVNKHVIVKIHTDEGLTGIGEMSDFSHLPLYSVDLHDLKQGLLSILLGQNPFDLMKINKELTDNFPETMYYFEKGSFIRNGIDNALHDLCAKYLDISVSDFLGGRVKEKIKVCYPIFRHRFSEEVESNLDVVRQKLEQGFDVFRLYVGKNLDADEEFLSRVKEEFGSRVRIKSYDFSHLLNWKDAHRAIKRLTKYDLGLEMIESPAPRNDFDGLYQLRLKTDYPISEHVWSFKQQQEMIKKDAIDIFNISPVFIGGLTSAKKAAYAAEVASKDVVLGTTQELSVGTAAMAHLGCSLTNINHTSDPTGPELYVGDVVKNRVTYKDGYLYAPDRSVKGLGIELDESLLAKYQVPDLSWDNVTVHQLQDRTADTKS
In the case of B2, the Km stood at 2000 ± 480 µM, the kcat came to 0.0061 ± 0.006 s⁻¹ and the kcat/Km is 3.1 M⁻¹ s⁻¹.
